Laboratory results reported in patent publication US20220332804A1 (CSL INNOVATION, published 2022).

T1: human complement C2 (human, UniProt P06681 21-752)
T1 construct: Recombinant full-length human C2 with C-terminal 8x His tag, purified from Expi293F supernatant; also called human C2; huC2
T1 sequence: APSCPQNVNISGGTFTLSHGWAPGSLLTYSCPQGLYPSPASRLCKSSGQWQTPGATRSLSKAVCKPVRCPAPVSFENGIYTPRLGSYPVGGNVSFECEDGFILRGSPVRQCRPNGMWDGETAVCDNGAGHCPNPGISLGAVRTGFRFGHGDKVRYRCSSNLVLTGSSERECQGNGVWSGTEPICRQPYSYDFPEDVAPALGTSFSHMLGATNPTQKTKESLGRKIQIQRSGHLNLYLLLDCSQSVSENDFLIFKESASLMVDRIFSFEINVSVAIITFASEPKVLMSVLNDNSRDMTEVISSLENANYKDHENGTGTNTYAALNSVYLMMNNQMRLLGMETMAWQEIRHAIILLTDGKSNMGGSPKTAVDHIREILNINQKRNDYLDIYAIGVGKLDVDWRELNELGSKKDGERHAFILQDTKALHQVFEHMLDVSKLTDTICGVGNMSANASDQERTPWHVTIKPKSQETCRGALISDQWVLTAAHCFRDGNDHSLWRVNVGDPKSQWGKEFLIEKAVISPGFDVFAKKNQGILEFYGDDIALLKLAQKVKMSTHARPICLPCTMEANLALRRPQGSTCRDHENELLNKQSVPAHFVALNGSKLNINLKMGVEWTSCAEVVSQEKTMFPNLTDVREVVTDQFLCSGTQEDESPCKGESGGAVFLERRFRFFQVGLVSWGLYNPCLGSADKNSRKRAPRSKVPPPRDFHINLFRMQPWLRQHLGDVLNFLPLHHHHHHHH

T2: mouse C2 (mouse, UniProt P21180 19-760, limits assumed)
T2 sequence (looked up): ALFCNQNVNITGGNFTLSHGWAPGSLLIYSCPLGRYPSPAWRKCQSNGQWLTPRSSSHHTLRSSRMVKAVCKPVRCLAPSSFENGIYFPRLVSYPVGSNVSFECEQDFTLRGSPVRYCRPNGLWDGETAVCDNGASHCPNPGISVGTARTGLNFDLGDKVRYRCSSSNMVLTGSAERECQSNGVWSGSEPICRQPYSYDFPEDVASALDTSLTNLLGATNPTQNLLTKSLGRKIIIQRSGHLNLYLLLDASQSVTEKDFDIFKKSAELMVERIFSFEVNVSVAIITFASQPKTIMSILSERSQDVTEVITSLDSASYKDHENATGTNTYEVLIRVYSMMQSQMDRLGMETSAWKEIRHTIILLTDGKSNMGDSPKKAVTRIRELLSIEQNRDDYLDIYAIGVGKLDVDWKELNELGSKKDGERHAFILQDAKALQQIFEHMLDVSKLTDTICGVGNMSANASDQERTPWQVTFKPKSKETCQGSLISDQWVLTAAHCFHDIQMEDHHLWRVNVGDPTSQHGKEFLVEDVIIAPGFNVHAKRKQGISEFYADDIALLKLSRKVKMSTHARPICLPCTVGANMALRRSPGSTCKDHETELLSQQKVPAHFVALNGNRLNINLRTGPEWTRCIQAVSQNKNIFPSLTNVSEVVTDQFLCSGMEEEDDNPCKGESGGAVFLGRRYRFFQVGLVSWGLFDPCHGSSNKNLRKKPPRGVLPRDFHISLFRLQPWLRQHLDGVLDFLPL

T3: cynomolgus monkey C2 (cynomolgus monkey, UniProt G8F3W0 21-752)
T3 sequence: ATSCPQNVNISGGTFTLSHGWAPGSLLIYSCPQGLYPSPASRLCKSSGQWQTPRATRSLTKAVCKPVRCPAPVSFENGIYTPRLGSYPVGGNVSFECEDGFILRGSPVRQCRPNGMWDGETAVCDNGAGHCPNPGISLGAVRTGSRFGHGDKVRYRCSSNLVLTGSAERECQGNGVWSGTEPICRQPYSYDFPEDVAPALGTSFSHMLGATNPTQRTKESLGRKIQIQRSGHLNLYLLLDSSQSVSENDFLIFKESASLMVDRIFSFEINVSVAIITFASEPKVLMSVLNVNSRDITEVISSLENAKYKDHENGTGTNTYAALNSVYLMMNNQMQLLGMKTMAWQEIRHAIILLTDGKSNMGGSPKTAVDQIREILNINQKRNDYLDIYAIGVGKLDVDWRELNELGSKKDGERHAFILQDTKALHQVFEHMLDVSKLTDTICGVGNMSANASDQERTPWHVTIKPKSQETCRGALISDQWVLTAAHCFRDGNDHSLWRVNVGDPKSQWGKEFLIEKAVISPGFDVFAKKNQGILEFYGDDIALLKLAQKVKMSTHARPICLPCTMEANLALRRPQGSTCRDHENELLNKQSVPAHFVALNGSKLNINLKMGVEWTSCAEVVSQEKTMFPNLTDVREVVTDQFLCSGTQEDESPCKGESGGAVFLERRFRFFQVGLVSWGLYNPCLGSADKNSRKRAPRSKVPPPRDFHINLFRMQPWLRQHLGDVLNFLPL


Tests used:
[1] = molecular target: T1, human complement C2; assay: SPR, mAb captured, C2 analyte, MHAs buffer, pH 6.0, steady state
Protocol: (§1) Surface plasmon resonance (SPR, Biacore) was used for all binding affinity analyses. In brief, goat anti-human IgG was directly immobilised onto the carboxymethyl dextran surface of CM5 sensorchips to approximately 12,000 RU using standard NHS/EDC chemistry at pH 5. The immobilised antibody surface was pre-conditioned with ten injections of polyclonal human IgG (Privigen 60 s) prepared at 1 μg/mL. Ligands (anti-C2 mAbs) were captured at the beginning of each cycle as described below. An adjacent spot or flow cell in which only Polyclonal IgG was capture was used as a reference surface. The goat anti-human IgG Fc antibody surface was regenerate in 100 mM H3PO4, injected for 45 seconds at the end of each cycle. Experiments were performed at 37° C. and the flow rate of each experiment was kept constant at 30 μL/min.
(§2) This buffer contains ammonium sulfate instead of sodium chloride.

[2] = molecular target: T2, mouse C2; assay: SPR, mAb captured, mouse C2 analyte, pH 7.3
Protocol: as §1
(§3) In addition to human C2, the pH dependent anti-C2 antibodies were also tested for their ability to bind to C2 from other mammalian species using the SPR methods described above in order to identify suitable surrogate species for in vivo testing. The antibodies were tested for binding at neutral pH against C2 from cynomolgus monkeys, mice, dogs, rabbits, rats, pigs, and sheep.

[3] = molecular target: T1, human complement C2; assay: SPR, mAb captured, C2 analyte, HBS-EP, pH 6.0
Protocol: as §1
The pH dependent anti-C2 antibodies and their germlined versions were tested for their affinity to C2 at pH 7.3 (neutral pH) and pH 6.0 (early endosome pH) using the SPR methods described above in HBS-EP buffer.

[4] = molecular target: T3, cynomolgus monkey C2; assay: cell-based or functional assay
[5] = molecular target: T1, human complement C2; assay: cell-based or functional assay
[6] = molecular target: T3, cynomolgus monkey C2; assay: cell-based or functional assay; remark: listed apart in the source
[7] = molecular target: T3, cynomolgus monkey C2; assay: SPR, mAb captured, cyno C2 analyte, pH 7.3
[8] = molecular target: T1, human complement C2; assay: cell-based or functional assay; remark: listed apart in the source
[9] = molecular target: T1, human complement C2; assay: SPR, mAb captured, C2 analyte, MHAs buffer, pH 7.3
Protocol: as §1, §2

[10] = molecular target: T1, human complement C2; assay: SPR, mAb captured, C2 analyte, MHAs buffer, pH 5.8, steady state
Protocol: as §1, §2

[11] = molecular target: T3, cynomolgus monkey C2; assay: SPR, mAb captured, cyno C2 analyte, pH 6.0
Protocol: as §1, §3

| Kd [1] [nM] | Kd [2] [nM] | Kd [3] [nM] | IC50, inhibition of cynomolgus classical complement pathway (Wieslab assay) [4] [nM] | IC50, inhibition of cynomolgus lectin complement pathway (Wieslab assay) [4] [nM] | Kd [7] [nM] | IC50, inhibition of human classical complement pathway (Wieslab assay) [8] [nM] | IC50, inhibition of human lectin complement pathway (Wieslab assay) [8] [nM] | Kd [9] [nM] | Kd [10] [nM] | Kd [11] [nM] | Binder | IC50, inhibition of human classical pathway (hemolysis assay) [5] [nM] | IC50, inhibition of cyno classical pathway (hemolysis assay), mean of three experiments [6] [nM] | IC50, inhibition of cyno classical pathway (hemolysis assay) [6] [nM] |
| --- | --- | --- | --- | --- | --- | --- | --- | --- | --- | --- | --- | --- | --- | --- |
| 2230 | 160 | 114 | 18.8 | 140 | 5.1 | 12.5 | 5.6 | 44 | 5510 | 141 | RF16-226 (antibody) heavy: not shown light: SYELTQPPSVSVSPGQTARITCSGDALTSKYVAWYQQKSGLAPLLVIYEDTRRPSGIPAKFSGSSSGSVATLTISGAHGDDEADYYCYSTDASGHQRVFGGGTKLTVLSQPKAAPSVTLFPPSSEELQANKATLVCLISDFYPGAVTVAWKADGSPVKAGVETTKPSKQSNNKYAASSYLSLTPEQWKSHRSYSCQVTHEGSTVEKTVAPTECS | 284 | 124 | – |
| 2170 | 885 | 148 | 134 | 362 | 46.8 | 18.6 | 7.69 | 233 | 4670 | 137 | RF16-214 (antibody, V domains shown) VH: EVQLLESGGGLVQPGGSLRLSCAASGFTFSWYQMMWVRQAPGKGLEWVSRIYPSGGGTAYADSVKGRFTISRDNSKNTLYLQMNSLRAEDTAVYYCARDAGYGDNWGQGTLVTVSS VL: QSALTQPPSVSVSPGQTASITCSGDKLGEKYASWYQQKAGQSPVMVIYQDRKRPSGIPERFSGSNSGNTATLTISGTQAMDEADYYCQAWDTRAVVFGGGTKLTVLG | 241 | – | 630 |
